According to the nanobody polyreactivity screen of Harvey et al. (2022):

test: yeast display, Sf9 membrane polyspecificity reagent, FACS + sequencing; frameworks hold sequencing errors
Summary of the method: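 A synthetic nanobody library was expressed on Saccharomyces cerevisiae BJ5465 by galactose induction for 36–48 hours. The library was stained for 1 hour at 4 °C with 10% biotinylated, detergent-solubilized Sf9 membrane reagent and enriched with streptavidin microbeads before FACS. Low and high (top ~1%) gates were set on anti-HA fluorescence for expression and streptavidin fluorescence for reagent binding, and each polyreactivity label reflects the gate of origin.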

Sequence	polyreactivity (PSR sort gate)
QVQLVESGGGLVQAGGSLRLSCAASGRIFRSNAMGWYRQAPGKERELVAVINSDDSTYYADSVKGRFTISRDNAKNTVYLQMNSLKPEDTAVYYCAAEPQYTRHMDSLGQGTQVTVSS	low polyreactivity
QVQLVESGGGLVQAGGSLRLSCAASGRIFRSYALGWYRQAPGKERELAAAISYGGGSTYYADSVKGRFTISRDNAKNTVYLQMNSLKPEDTAVYYCAARGYSRPMDYWGQGTQVTVSS	high polyreactivity
QVQLVESGGGLVQAGGSLRLSCAASGRIFRSYAMGWYRQAPGKERELVAAITGSTGSTSYADSVKGRFTISRDNAKNTVYLQMNSLKPEDTAGYYCNAEYSSGYGQSHTYFYEYDYWGHGTQVTVSS	low polyreactivity
QVQLVESGGGLVQAGGSLRLSCAASGRIFRVYAMGWYRQAPGKERELVAAISSGGSTNYADSVKGRFTISRDNAKNTVYLQMNSLKPEDTAVYYCAATVRGVGYRYYYWGQGTQVTVSS	high polyreactivity
QVQLVESGGGLVQAGGSLRLSCAASGRIFRVYAMGWYRQAPGKERELVAAISSRGGRTYYADSVKGRFTISRDNAKNTVYLQMNSLKPEDTAVYYCAADGRSCSRTTSRYDYWGQGTQVTVSS	high polyreactivity
QVQLVESGGGLVQAGGSLRLSCAASGRIFRYNAMGWYRQAPGKERELVAAISGTGDRTYYADSVKGRFTISRDNAKNTVYLQMNSLKPEDTAVYYCAARGLFFRNRYGYWGQGTQVTVSS	high polyreactivity
QVQLVESGGGLVQAGGSLRLSCAASGRIFRYNAMGWYRQAPGKERELVAAISRGDGSTYYADSVKGRFTISRDNAKNTVYLQMNILKPEDTAVYYCAAAWSFIYFQHPAFKYDYWGQGTQVTVSS	low polyreactivity
QVQLVESGGGLVQAGGSLRLSCAASGRIFRYNAMGWYRQAPGKERELVAAISWSGGSTYADSVKGRFTISRDNAKNTVYLQMNSLKPEDTAVYYCAADSSDLYVWGYDHWGQGTQVTVSS	low polyreactivity
QVQLVESGGGLVQAGGSLRLSCAASGRIFRYNAMGWYRQAPGKERELVAAISWTVGRTYYADSVKGRFTISRDNAKNTVYLQMNSLKPEDTAVYYCATDVGYYRKYEYYYWGQGTQVTVSS	high polyreactivity
QVQLVESGGGLVQAGGSLRLSCAASGRIFRYNAMGWYRQAPGKERELVAAITNSCSTNYADSVKGRFTISRDNAKNTVYLQMNSMKQEDTAVYYCAARARFYGGRSYDYWGQGTQVTVSS	high polyreactivity
QVQLVESGGGLVQAGGSLRLSCAASGRIFRYNAMGWYRQAPGKERELVAAITSGTGTNYADSVKGRFTISRDNAKNTVYLQMNSLKPEDTAVYYCNKDRKSYRYDYWGQGTQVTVSS	low polyreactivity
QVQLVESGGGLVQAGGSLRLSCAASGRIFRYNGMGWYRQAPGKERELVAVITPRSGTTSYADSVKGRFTISRDNAKNTVYLQMNSLKPEDTAVYYCAADSDWYPSPYDYWGQGTQVTVSS	high polyreactivity
QVQLVESGGGLVQAGGSLRLSCAASGRIFRYNIMGWYRPAPGKERELVAAIRQIGGSTYYADSVKGRFTISRDNAKNTVYLQMNSLKPEDTAVYYCAADSTVEATPFFVEYDYWGQGTQVTVSS	low polyreactivity
QVQLVESGGGLVQAGGSLRLSCAASGRIFRYYAIGWYRQAPGKERELVAVITSSGGSTYYADSVKGRFTISRDNAKNTVYLQMNSLKPEDTAVYYCAKDHRSYWGQGTQVTVSS	high polyreactivity
QVQLVESGGGLVQAGGSLRLSCAASGRIFRYYAKGWYRQAPGKERELVAAIRSASSTYYADSVKGRFTISRDNAKNTVYLQMNSLKPEDTAVYDCAAGLYGVYNRRYYYWGQGTQVTVSS	high polyreactivity
QVQLVESGGGLVQAGGSLRLSCAASGRIFRYYAMGWYRKAPGKERELVASISQRGGSTYYADSVKGRFTISRDNAKNTVYLQMNSLKPEDTAVYYCAARRSTVFILDYDWGQGTQVTVSS	high polyreactivity
QVQLVESGGGLVQAGGSLRLSCAASGRIFRYYAMGWYRPAPGKERELVAAITWRGDSTYYADSVKGRFTISRDNAKNTVYLQMNSLKPEDTAVYYCNKRWTDKYDSWGQGTQVTVSS	high polyreactivity
QVQLVESGGGLVQAGGSLRLSCAASGRIFRYYAMGWYRQAPGKEMELVAAITRGGSTNYADSVKGRFTISRDNAKNTGYLQMNSLKPEDTAVYYCATRQSWYPRWMDYWGQCTQVTVSS	high polyreactivity
QVQLVESGGGLVQAGGSLRLSCAASGRIFRYYAMGWYRQAPGKEREFVAAINSSGVNTYYADSVKGRFTISRDNAKNTVYLQMNSLKPEDTAVYYCAADWYQWGGRYYAPRYYYWGQGTQVTVSS	high polyreactivity
QVQLVESGGGLVQAGGSLRLSCAASGRIFRYYAMGWYRQAPGKERELVAAINWGGGSTYYADSVKGRFTISRDNAKNTVYLQMNSLKPEDTAVYYCNRDRNSFPHYFSHYGYWGQGTQVTVSS	high polyreactivity
QVQLVESGGGLVQAGGSLRLSCAASGRIFRYYAMGWYRQAPGKERELVAAISDSSGSTYYADSVKGRFTISRDNAKNSVYLQMNCLKPEDTAVYYCRYYFGSGYYYWGEGTQVTVSS	high polyreactivity
QVQLVESGGGLVQAGGSLRLSCAASGRIFRYYAMGWYRQAPGKERELVAAISKSGGSTYYADSVKGRFTISRDNAKNTVYFQMNSLKPEDTGVYYCNARSRLGGLYEYWGQGTQVTVSS	high polyreactivity

Sequence	polyreactivity (PSR sort gate)
QVQLVESGGGLVQAGGSLRLSCAASGRIFRYYAMGWYRQAPGKERELVAAISWSGTSTYYADSVKGRFTISRDNAKNTVYLQMNSLKPEDTAVYYCAKVGYQYATYRSDYWGQGTQVTVSS	high polyreactivity
QVQLVESGGGLVQAGGSLRLSCAASGRIFRYYAMGWYRQAPGKERELVAAISYSGGRTYYADSVKGRFTISRDNAKNTVYLQMNSLKPEDTAVYYCARFWHSQSSYVPFDSWGQGTQVTVSS	high polyreactivity
QVQLVESGGGLVQAGGSLRLSCAASGRIFRYYAMGWYRQAPGKERELVAAISYSTGGTYYADSVKGRFTISRDNAKNTVYLQMNSLKPEDTAVYYCATSAYQIYPRYGYWGQGTQVTVSS	high polyreactivity
QVQLVESGGGLVQAGGSLRLSCAASGRIFRYYAMGWYRQAPGKERELVAAITQRGGSTYADSVKGRFTISRDNAKNTVYLQMNSLKPEDTAVYYCAYRGSFLYDYWGQGTQVTVSS	low polyreactivity
QVQLVESGGGLVQAGGSLRLSCAASGRIFRYYAMGWYRQAPGKERELVAAITWRGDSTYYADSVKGRFTISRDNAKNTVYLQMNSLKPEDTAVYYCNKRWTDKYDSWGQGTQVTVSS	high polyreactivity
QVQLVESGGGLVQAGGSLRLSCAASGRIFRYYAMGWYRQAPGKERELVAGITIGGSTNYADSVKGRFTISRDNAKNTVYLLMISLKPEDTAVYYCAAVQHDENEYWGQGTQVTVSS	low polyreactivity
QVQLVESGGGLVQAGGSLRLSCAASGRIFRYYAMGWYRQAPGKERELVATIRSGGSTNYADSVKGRFTISRDNAKNTVYLQMNSLKPEDTEVYYCAATGGILSTYDYWGLGTQVTVSS	high polyreactivity
QVQLVESGGGLVQAGGSLRLSCAASGRIFRYYAMGWYRQAPGKERELVGSITYSGGRTNYADSVKGRFTISRDNAKNTVYLQMNSLKPEDTAVYYCNAAYVYYYPHYRYAPTAVDYDYWGQGTQVTVSS	low polyreactivity
QVQLVESGGGLVQAGGSLRLSCAASGRIFRYYAMVWYRQAPRKERELVAGITRGGTTNYADSVKGRFTISRDNAKNTVYLQMNSLKPEDTAVYYCAADTRRGIIGYDYWGQGTQVTVSS	high polyreactivity
QVQLVESGGGLVQAGGSLRLSCAASGRIFRYYVMGWYRQAPGKERELVAAISRSGGTTYYADSVKGRFTISRDTATNTVYLQMNSLKREDTAVFYCAAVYGRDPGDYWGQGTQVTVSS	high polyreactivity
QVQLVESGGGLVQAGGSLRLSCAASGRIFSAYAMGWYRQAPGKERELVAAISRSGGRTYYADSVKGRFTISRDNAKNTVYLQMNSLKPEDTAVYYCAAARFAIVRGDYWGQGTQVTVSS	high polyreactivity
QVQLVESGGGLVQAGGSLRLSCAASGRIFSAYAMGWYRQAPGKERELVAAISSGGRTYYADSVKGRFTISRDNAKNTVYLEMYRLKPEDTAVYFCNAVALWGRDYGYWGQGTQVSVSS	high polyreactivity
QVQLVESGGGLVQAGGSLRLSCAASGRIFSAYAMGWYRQAPGKERELVAVISSGDSTNYADSVKGRFTISRDNAKNTVYLQMNSLKPEDTAVYYCNARGKHRYGFRSHVGNEYWGQVTQVTVSS	low polyreactivity
QVQLVESGGGLVQAGGSLRLSCAASGRIFSDYAMGWYRQAPGKERELVAAISRSGTRTYYADSVKGRFTISRDNAKNTVYLQMNSLKPEDTAVYYCAAKTPYGRAGQEEDYWGQGTQVTVSS	high polyreactivity
QVQLVESGGGLVQAGGSLRLSCAASGRIFSEYALGWYRQAPGKERELVAAITRRGGSTYYADSVKGRFTISRYNAKNTVYLQMNSLKPEDTAVYYCNALLTGGYQDSYPADYWGQGTQVTVSS	high polyreactivity
QVQLVESGGGLVQAGGSLRLSCAASGRIFSFNAMGWYRQAPGKERELVAAISWSTGSTFYADSVKGRFTISRDNAKNTVYLQMNSLKPEDTAVYYCATGFPHPKRNVNRRNYWGQGTQVTVSS	high polyreactivity
QVQLVESGGGLVQAGGSLRLSCAASGRIFSFNAMGWYRQAPGKERELVAGITYGGNTYYADSVKGRFTISRDNAKNTVYLQMNSLKPEDTAVYYCAAVRGGRHDYWGQGTQVTVSS	low polyreactivity
QVQLVESGGGLVQAGGSLRLSCAASGRIFSFSAMGWYRQAPGKERELVAAISYSGGRTYYADSGKGRFTISRDNAKNTVYLQMNSLKPDDTAVYDCNAGRVLRLAYNYWGQGTQVTVSS	low polyreactivity
QVQLVESGGGLVQAGGSLRLSCAASGRIFSFYTMGWSRQAPGKERELVAAISNVGGTDYADSVKGRFTISRDNAKNTVYLQMNSLKPEDTAVYYCHAAWGRYFRYRWYTNGLDYWGQGTQVTVSS	low polyreactivity
QVQLVESGGGLVQAGGSLRLSCAASGRIFSGNAMGWYRQAPGKERELVANITSSSNTNYADSVKGRFTISRDNAKNTVYLQMNSLKPEDTAVYYCAKSAHNGYSFYGYDYWGQGTQVTVSS	low polyreactivity
QVQLVESGGGLVQAGGSLRLSCAASGRIFSGNGMGWYRQAPGKEREFVAAIRFSSGSTYYADSVKGRFTISRDNAKNTVYLQMNSLKPEDTAVYYCARPSIPRRYDYWGQGTQVTVSS	high polyreactivity
